Results taken from paper PMC9891822, “Cysteine Pathogenic Variants of PMM2 Are Sensitive to Environmental Stress with Loss of Structural Stability” (Oxidative Medicine and Cellular Longevity, 2023).

B1: Phosphomannomutase2 (PMM2) wild type (enzyme, human, UniProt O15305-1 1-246, looked up)
chain: MAAPGPALCLFDVDGTLTAPRQKITKEMDDFLQKLRQKIKIGVVGGSDFEKVQEQLGNDVVEKYDYVFPENGLVAYKDGKLLCRQNIQSHLGEALIQDLINYCLSYIAKIKLPKKRGTFIEFRNGMLNVSPIGRSCSQEERIEFYELDKKENIRQKFVADLRKEFAGKGLTFSIGGQISFDVFPDGWDKRYCLRHVENDGYKTIYFFGDKTMPGGNDHEIFTDPRTMGYSVTAPEDTRRICELLFS
notes: PMM2, human, open reading frame NM_000303, primers from the start codon to the stop codon; Cloned into pET28a(+) 'containing 6x His-tag'; also called PMM2-WT; WT; source: E. coli BL21 (DE3), purified (Ni-NTA, Superdex 75)
B2: PMM2 Cys241Ser (C241S) variant (enzyme, human, UniProt O15305-1 1-246, looked up)
chain: MAAPGPALCLFDVDGTLTAPRQKITKEMDDFLQKLRQKIKIGVVGGSDFEKVQEQLGNDVVEKYDYVFPENGLVAYKDGKLLCRQNIQSHLGEALIQDLINYCLSYIAKIKLPKKRGTFIEFRNGMLNVSPIGRSCSQEERIEFYELDKKENIRQKFVADLRKEFAGKGLTFSIGGQISFDVFPDGWDKRYCLRHVENDGYKTIYFFGDKTMPGGNDHEIFTDPRTMGYSVTAPEDTRRISELLFS
notes: PMM2, human, open reading frame NM_000303, with the pathogenic variant C241S (c. G722C) found in patients; Cloned into pET28a(+) 'containing 6x His-tag'; also called PMM2-C241S; source: E. coli BL21 (DE3), purified (Ni-NTA, Superdex 75)
B3: PMM2 Cys9Tyr (C9Y) variant (enzyme, human, UniProt O15305-1 1-246, looked up)
chain: MAAPGPALYLFDVDGTLTAPRQKITKEMDDFLQKLRQKIKIGVVGGSDFEKVQEQLGNDVVEKYDYVFPENGLVAYKDGKLLCRQNIQSHLGEALIQDLINYCLSYIAKIKLPKKRGTFIEFRNGMLNVSPIGRSCSQEERIEFYELDKKENIRQKFVADLRKEFAGKGLTFSIGGQISFDVFPDGWDKRYCLRHVENDGYKTIYFFGDKTMPGGNDHEIFTDPRTMGYSVTAPEDTRRICELLFS
notes: PMM2, human, open reading frame NM_000303, with the pathogenic variant C9Y (c. G26A) found in patients; Cloned into pET28a(+) 'containing 6x His-tag'; also called PMM2-C9Y; source: E. coli BL21 (DE3), purified (Ni-NTA, Superdex 75)

Target: the molecule itself
Test: SEC; Superdex 75 10/300GL on an AKTA purifier; 100 uL of 0.2 mg/mL protein injected; 0.6 mL/min; 20 mM Na2HPO4, 150 mM NaCl, 1 mM EDTA; mass estimated from the elution volume

Protein	stoichiometry N
B1	2
B2	2
B3	2
